Measured values published in patent US20170267783A1 (published 2017).
Changes are numbered by the printed parent chain.

B1: TR01H113-E2702sKsc/GCH065-E2704sEpsc/L0011-k0 (bispecific antibody, human IgG4 S228P, kappa, N297A)
heavy 1: QVQLVESGGGVVQPGGSLRLSCAASGFTFSNAWMHWVRQAPGKGLEWVAQIKDKSQNYATYVAESVKGRFTISRADSKNSIYLQMNSLKTEDTAVYYCRYVHYAAGYGVDIWGQGTTVTVSSASTKGPSVFPLAPCSRSTSESTAALGCLVKDYFPEPVTVSWNSGALTSGVHTFPAVLQSSGLYSLSSVVTVPSSSLGTKTYTCNVDHKPSNTKVDKRVESKYGPPCPPCPAPEFRGGPKVFLFPPKPKDTLMISRTPEVTCVVVDVSQEDPEVQFNWYVDGVEVHNAKTKPREEQFASTYRVVSVLTVLHQDWLNGKEYKCKVSNKGLPSSIEKTISKAKGQPREPQVYTLPPSQKEMTKNQVSLTCLVKGFYPSDIAVEWESNGQPENNYKTTPPVLDSDGSFFLYSKLTVDKSRWQEGNVFSCSVMHEALHNHYTQKSLSLSP
heavy 2: QVQLVQSGAEVKKPGASVTVSCKASGYTFTDYEMHWIRQPPGEGLEWIGAIDGPTPDTAYSEKFKGRVTLTADKSTSTAYMELSSLTSEDTAVYYCTRFYSYTYWGQGTLVTVSSASTKGPSVFPLAPCSRSTSESTAALGCLVKDYFPEPVTVSWNSGALTSGVHTFPAVLQSSGLYSLSSVVTVPSSSLGTQTYTCNVDHKPSNTKVDKRVESKYGPPCPPCPAPEFRGGPKVFLFPPKPKDTLMISRTPEVTCVVVDVSQEDPEVQFNWYVDGVEVHNAKTKPREEQFASTYRVVSVLTVLHQDWLNGKEYKCKVSNKGLPSSIEKTISKAKGQPREPQVYTLPPSQEEMTKNQVSLTCLVKGFYPSDIAVEWESNGQPENNYKTTPPVLDSDGSFFLYSKLTVDKSRWQEGNVFSCSVMHEALHNHYTQESLSLSP
light: DIVMTQSPLSLPVTPGEPASISCRSSQPLVHSNRNTYLHWYQQKPGQAPRLLIYKVSNRFSGVPDRFSGSGSGTDFTLKISRVEAEDVGVYYCGQGTQVPYTFGQGTKLEIKRTVAAPSVFIFPPSDEQLKSGTASVVCLLNNFYPREAKVQWKVDNALQSGNSQESVTEQDSKDSTYSLSSTLTLSKADYEKHKVYACEVTHQGLSSPVTKSFNRGEC
B2: TR01H002-E22Hh/GLS3108-k0/GL4-E22Hk/H0000-E22L (bispecific antibody, human IgG1, kappa, L234A L235A, N297A)
heavy 1: QVQLVESGGGVVQPGRSLRLSCAASGFTFSNAWMHWVRQAPGKGLEWVAQIKAKSNNYKKYYAESVKGRFTISRDDSKNSLYLQMNSLKTEDTAVYYCRYVHYYYYYGVQAWGQGTTVTVSSASTKGPSVFPLAPSSKSTSGGTAALGCLVKDYFPEPVTVSWNSGALTSGVHTFPAVLQSSGLYSLSSVVTVPSSSLGTQTYICNVNHKPSNTKVDKKVEPKSCDKTHTCPPCPAPEAAGGPSVFLFPPKPKDTLMISRTPEVTCVVVDVSHEDPEVKFNWYVDGVEVHNAKTKPREEQYASTYRVVSVLTVLHQDWLNGKEYKCKVSNKALPAPIEKTISKAKGQPREPQVYTLPPSRCELTKNQVSLSCAVKGFYPSDIAVEWESNGQPENNYKTTPPVLDSDGSFFLVSKLTVDKSRWQQGNVFSCSVMHEALHNHYTQKSLSLSPDYKDDDDK
light 1: B1 light with P28S, H39S
heavy 2: DIVMTQSPLSLPVTPGEPASISCRSSQSLVHSNRNTYLHWYQQKPGQAPRLLIYKVSNRFSGVPDRFSGSGSGTDFTLKISRVEAEDVGVYYCSQNTHVPPTFGQGTKLEIKSSASTKGPSVFPLAPSSKSTSGGTAALGCLVKDYFPEPVTVSWNSGALTSGVHTFPAVLQSSGLYSLSSVVTVPSSSLGTQTYICNVNHKPSNTKVDKKVEPKSCDKTHTCPPCPAPEAAGGPSVFLFPPKPKDTLMISRTPEVTCVVVDVSHEDPEVKFNWYVDGVEVHNAKTKPREEQYASTYRVVSVLTVLHQDWLNGKEYKCKVSNKALPAPIEKTISKAKGQPREPQVCTLPPSRDELTKNQVSLWCLVKGFYPSDIAVEWESNGQPENNYKTTPPVLDSDGSFFLYSKLTVDKSRWQQGNVFSCSVMHEALHNHYTQKSLSLSPHHHHHHHH
light 2: QVQLVQSGAEVKKPGASVKVSCKASGYTFTDYEMHWIRQPPGQGLEWIGAIDPKTGDTAYSQKFKGRVTLTADKSTSTAYMELSSLTSEDTAVYYCTRFYSYTYWGQGTLVTVSSASVAAPSVFIFPPSDEQLKSGTASVVCLLNNFYPREAKVQWKVDNALQSGNSQESVTEQDSKDSTYSLSSTLTLSKADYEKHKVYACEVTHQGLSSPVTKSFNRGEC
notes: CD3 arm + GPC3 arm with VH/VL exchanged

What was measured:
[1] = molecular target: extracellular matrix (ECM; BD Matrigel); assay: ECL on Matrigel-coated plate, signal divided by that of MRAH-G1d/MRAL-k0
soluble human CD3ε chain = molecular target: T1, soluble human CD3ε chain (human, UniProt P07766 23-126); assay: SPR (Biacore)
T1 construct: also called CD3 epsilon
T1 sequence (P07766 23-126 limits assumed): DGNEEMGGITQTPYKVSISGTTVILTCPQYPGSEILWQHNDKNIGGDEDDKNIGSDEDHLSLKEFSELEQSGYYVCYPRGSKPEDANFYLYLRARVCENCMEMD

Binder | ECM binding ratio (standard = 1) (ratio to standard antibody) [1] | Kd (soluble human CD3ε chain) [nM]
B1 | 0.3 | 
B2 |  | 4.76
